In the RNAGym collection of RNA variant scans (doi:10.7554/elife.80360):

B1: Hammerhead Ribozyme (parent)
chain: ACCGGAUGUGCUUUCCGGUCUGAUGAGUCCGUGAGGACGAAACAG

Variants of: B1
Experiment: self-cleavage, relative activity (ratio to wild type); higher = more cleavage; co-transcriptional
With U21C U32A the self-cleavage was 0.71.
U21C U32C showed a self-cleavage of 0.96.
U21C U32G gave a self-cleavage of 0.947.
U21G A40G showed a self-cleavage of 0.345.
With U21G A40C the self-cleavage was 0.312.
U21G A40U showed a self-cleavage of 0.331.
U21G G31C showed a self-cleavage of 0.577.
In the case of U21G G31A, the self-cleavage is reported as 0.797.
In the case of U21G G31U, the self-cleavage is reported as 0.743.
C20U G31C gave a self-cleavage of 0.489.
Variant C20U G31U has a self-cleavage of 0.718.
For C20U G31A, the self-cleavage was 0.783.
U21C C38U showed a self-cleavage of 0.629.
In the case of U21C C38A, the self-cleavage is reported as 0.711.
In the case of U21C C38G, the self-cleavage is reported as 0.659.
With U21C A44C the self-cleavage was 0.454.
With U21C A44U the self-cleavage was 0.571.
For U21C A44G, the self-cleavage was 0.852.
For U21A G31U, the self-cleavage was 0.554.
Variant U21A G31A has a self-cleavage of 0.634.
Work on U21A G31C yielded a self-cleavage of 0.532.
In the case of U21C G45U, the self-cleavage is reported as 0.553.
U21C G45A gave a self-cleavage of 0.436.
Work on U21C G45C yielded a self-cleavage of 0.416.
In the case of C20U U24G, the self-cleavage is reported as 0.714.
With C20U U24C the self-cleavage was 0.508.
For C20U U24A, the self-cleavage was 0.799.
Variant U21G U28A has a self-cleavage of 0.4.
For U21G U28G, the self-cleavage was 0.564.
Variant U21G U28C has a self-cleavage of 0.381.
For G22A G39A, the self-cleavage was 0.367.
Variant G22A G39U has a self-cleavage of 0.325.
For G22A G39C, the self-cleavage was 0.385.
With U21A A44U the self-cleavage was 0.283.
With U21A A44G the self-cleavage was 0.932.
With U21A A44C the self-cleavage was 0.415.
U21A A40C showed a self-cleavage of 0.315.
Work on U21A A40G yielded a self-cleavage of 0.271.
Variant U21A A40U has a self-cleavage of 0.338.
In the case of U21G G27U, the self-cleavage is reported as 0.296.
U21G G27A showed a self-cleavage of 0.39.
In the case of U21G G27C, the self-cleavage is reported as 0.4.
Work on G22A C43G yielded a self-cleavage of 0.288.
For G22A C43A, the self-cleavage was 0.411.
G22A C43U showed a self-cleavage of 0.318.
In the case of U21G A44U, the self-cleavage is reported as 0.285.
With U21G A44C the self-cleavage was 0.285.
Work on U21G A44G yielded a self-cleavage of 0.697.
In the case of U21A U28C, the self-cleavage is reported as 0.529.
For U21A U28A, the self-cleavage was 0.46.
U21A U28G gave a self-cleavage of 0.392.
With U21G A37C the self-cleavage was 0.427.
In the case of U21G A37U, the self-cleavage is reported as 0.417.
Work on U21G A37G yielded a self-cleavage of 0.454.
In the case of G22C, the self-cleavage is reported as 0.336.
In the case of G22A, the self-cleavage is reported as 0.356.
U21C G39U showed a self-cleavage of 0.34.
With U21C G39A the self-cleavage was 0.304.
U21C G39C gave a self-cleavage of 0.378.
In the case of U21G G22U, the self-cleavage is reported as 0.426.
With U21G G22A the self-cleavage was 0.324.
Work on U21G G22C yielded a self-cleavage of 0.292.
In the case of G22C A23C, the self-cleavage is reported as 0.28.
G22C A23U showed a self-cleavage of 0.351.
Variant G22C A23G has a self-cleavage of 0.312.
U21C A42U gave a self-cleavage of 0.318.
With U21C A42G the self-cleavage was 0.323.
U21C A42C showed a self-cleavage of 0.28.
Work on U21A G27A yielded a self-cleavage of 0.363.
Variant U21A G27C has a self-cleavage of 0.296.
U21A G27U gave a self-cleavage of 0.294.
U21A G35A gave a self-cleavage of 0.52.
For U21A G35C, the self-cleavage was 0.492.
U21A G35U gave a self-cleavage of 0.466.
For U21G A26G, the self-cleavage was 0.343.
For U21G A26U, the self-cleavage was 0.431.
U21G A26C gave a self-cleavage of 0.237.
Variant U21G C38A has a self-cleavage of 0.388.
In the case of U21G C38G, the self-cleavage is reported as 0.303.
Work on U21G C38U yielded a self-cleavage of 0.374.
In the case of U21G G25C, the self-cleavage is reported as 0.361.
For U21G G25U, the self-cleavage was 0.373.
For U21G G25A, the self-cleavage was 0.349.
For U21A A42G, the self-cleavage was 0.307.
U21A A42U showed a self-cleavage of 0.402.
In the case of U21A A42C, the self-cleavage is reported as 0.382.
With U21C G36C the self-cleavage was 0.366.
With U21C G36A the self-cleavage was 0.718.
Work on U21C G36U yielded a self-cleavage of 0.665.
Work on U21C C30G yielded a self-cleavage of 0.403.
Work on U21C C30A yielded a self-cleavage of 0.494.
For U21C C30U, the self-cleavage was 0.891.
Work on U21C U28A yielded a self-cleavage of 0.573.
Variant U21C U28C has a self-cleavage of 0.977.
For U21C U28G, the self-cleavage was 0.703.
Work on U21C yielded a self-cleavage of 0.877.
With U21A the self-cleavage was 0.687.
With U21G the self-cleavage was 0.706.
In the case of U21A G45A, the self-cleavage is reported as 0.329.
U21A G45C gave a self-cleavage of 0.335.
Variant U21A G45U has a self-cleavage of 0.432.
For C20U G39A, the self-cleavage was 0.383.
With C20U G39C the self-cleavage was 0.362.
Variant C20U G39U has a self-cleavage of 0.335.
For U21C G33A, the self-cleavage was 0.74.
With U21C G33C the self-cleavage was 0.756.
In the case of U21C G33U, the self-cleavage is reported as 0.795.
With U21A G39C the self-cleavage was 0.32.
In the case of U21A G39A, the self-cleavage is reported as 0.311.
For U21A G39U, the self-cleavage was 0.301.
Variant G22A G33A has a self-cleavage of 0.353.
Variant G22A G33U has a self-cleavage of 0.3.
For G22A G33C, the self-cleavage was 0.317.
Variant U21C A23U has a self-cleavage of 0.708.
U21C A23C showed a self-cleavage of 0.771.
U21C A23G gave a self-cleavage of 0.354.
Work on C20U G25U yielded a self-cleavage of 0.328.
U21A G33A showed a self-cleavage of 0.808.
With U21A G33U the self-cleavage was 0.55.
Variant U21A G33C has a self-cleavage of 0.584.
Variant U21A C38G has a self-cleavage of 0.378.
U21A C38A showed a self-cleavage of 0.363.
With U21A C38U the self-cleavage was 0.401.
Work on U21G G35A yielded a self-cleavage of 0.28.
U21G G35U showed a self-cleavage of 0.413.
In the case of U21G G35C, the self-cleavage is reported as 0.306.
C20U G36A showed a self-cleavage of 0.36.
Work on C20U G36C yielded a self-cleavage of 0.327.
C20U G36U showed a self-cleavage of 0.359.
With C20U U21A the self-cleavage was 0.358.
C20U U21C showed a self-cleavage of 0.531.
For C20U U21G, the self-cleavage was 0.362.
Work on U21G A34C yielded a self-cleavage of 0.278.
Variant U21G A34G has a self-cleavage of 0.602.
With U21G A34U the self-cleavage was 0.348.
U21C G31U showed a self-cleavage of 0.83.
Work on U21C G31C yielded a self-cleavage of 0.678.
In the case of U21C G31A, the self-cleavage is reported as 0.974.
Work on U21A A37U yielded a self-cleavage of 0.502.
Variant U21A A37G has a self-cleavage of 0.365.
U21A A37C showed a self-cleavage of 0.529.
G22A A42G showed a self-cleavage of 0.351.
Variant G22A A42U has a self-cleavage of 0.321.
Variant G22A A42C has a self-cleavage of 0.335.
For U21A C30G, the self-cleavage was 0.448.
Variant U21A C30A has a self-cleavage of 0.511.
U21A C30U showed a self-cleavage of 0.57.
Variant U21C C29U has a self-cleavage of 0.84.
Variant U21C C29A has a self-cleavage of 0.37.
With U21C C29G the self-cleavage was 0.507.
Variant G22A U24G has a self-cleavage of 0.363.
In the case of G22A U24A, the self-cleavage is reported as 0.378.
In the case of G22A U24C, the self-cleavage is reported as 0.311.
Work on U21A G36A yielded a self-cleavage of 0.41.
U21A G36C gave a self-cleavage of 0.283.
With U21A G36U the self-cleavage was 0.418.
Work on G22A A34G yielded a self-cleavage of 0.365.
G22A A34U showed a self-cleavage of 0.309.
G22A A34C showed a self-cleavage of 0.286.
For U21C A41U, the self-cleavage was 0.469.
Work on U21C A41G yielded a self-cleavage of 0.297.
Work on U21C A41C yielded a self-cleavage of 0.329.
G22A G31U gave a self-cleavage of 0.427.
In the case of G22A G31A, the self-cleavage is reported as 0.337.
For G22A G31C, the self-cleavage was 0.396.
U21A C43A showed a self-cleavage of 0.349.
Work on U21A C43G yielded a self-cleavage of 0.32.
